According to US20090155873A1, “BIOFUEL PRODUCTION” (BIO ARCHITECTURE LAB, INC., priority 2007, published 2009):

How the values were obtained:
[1] = NADH Production Assay (oxidation of 4-octanol); type: biochemical; conditions: NAD+, 30° C., FIG. 30A
Method: Various secondary alcohol dehydrogenases (2ADHs) were isolated from Pseudomonas putida KT2440, Pseudomonas fluorescens Pf-5, and Klebsiella pneumoniae MGH 78578. All vectors were transformed in BL21(DE3) competent cells and expression of the genes encoding the proteins of interest was induced with IPTG (via the T7 promoter). The cells were lysed, proteins were extracted and then purified on Ni-NTA columns. Final protein concentration in the Ni-NTA eluate was diluted to 0.15 mg/mL prior to assays.
[…] consumption and production assays were performed using a THERMOmax microplate reader in the kinetic mode, monitoring the NADPH absorbance peak at 340 nm until the reaction reached equilibrium. […] These reaction conditions are found in Table 4 below.

[2] = Sequential reaction of diol dehydrogenase and diol dehydratase on butyroin (GC-MS); type: biochemical; conditions: 37° C., 40 hours, NADH, coenzyme B12, GC-MS, FIGS. 26-27
Method: Diol dehydrogenase ddh from Klebsiella pneumoniae MGH 78578 and diol dehydratase pduCDE from Klebsiella pneumoniae MGH 78578 were cloned into a bacterial expression vector and expressed and purified on a Ni-NTA column, as described in Example X except that 1 mM of 1,2-propanediol was added at all time during the expression and purification of diol dehydratase. The large, medium, and small subunits of the pduCDE polypeptide are encoded by the nucleotide sequences of SEQ ID NOs:103, 105, and 107, respectively, and the polypeptide sequence are set forth in SEQ ID NOs: 104, 106, and 108, respectively.
The ddh3 and pduCDE polypeptides were incubated with butyroin and their appropriate cofactors, then assayed using gas chromatography-mass spectrometry (GC-MS) for their ability to perform sequential reactions resulting in the product 4-octanone. The reaction mixture was incubated at 37° C. for 40 hours in a 0.6 mL eppendorf tube with minimal head space. The reaction product was extracted with an equivalent volume of ethyl acetate, stored in a glass vial, and sent to Thermo Fischer Scientific Instruments Division for compositional analysis by GC-MS.

[3] = TBA assay for secreted alginate lyase; type: cell-based; conditions: BL21 cells, LB+2% alginate+0.1 mM IPTG, overnight culture media, FIG. 47
Method: The Vs24254 (SEQ ID NO: 32) region of Vibro spendidus encodes a functional external alginate lyase. BL21 cells expressing Vs24254 from the pET28 vector were capable of breaking down alginate in the growth medium. […] This assay was performed by spinning down an overnight culture grown on the above mentioned media. The media was then mixed in a 1:1 ratio with 0.8% thiobarbituric acid (TBA), heated for 10 min at 99 degrees Celsius, and assayed for pink coloration. […] Wildtype E. coli cells not expressing any recombinant proteins show the same coloration as the negative control Vs24259 (data not shown).

[4] = Kinetic testing of oxidation and reduction reactions with 2ADH-16; type: biochemical; conditions: 0.04 mg/mL enzyme, pH 6.5(red) or 9.0(ox), 25 C, FIGS. 35 and 36
Method: Similar to above, kinetic testing for both oxidation and reduction reactions was performed on various substrates using 2ADH-16. The conditions for these studies were as follows: 0.04 mg/mL enzyme, 0.25 mg/mL cofactor, 20 mM Tris HCl Buffer pH 6.5(red) or 9.0(ox), T=25 C, 100 uL total volume was used.

Row | Molecule | product formed from butyroin by sequential reactions [2] | TBA assay result (cleavage of alginate in growth medium) [3] | further results
1 | 2ADH-2: secondary alcohol dehydrogenase isolated from Pseudomonas putida KT2440, SEQ ID NO:112 (protein, Pseudomonas putida KT2440) MSMTFSGQVALVTGAGAGIGRATALAFAHEGMKVVVADLDPVGGEATVAQIHAAGGEALFIACDVTRDAEVRQLHERLMAAYGRLDYAFNNAGIEIEQHRLAEGSEAEFDAIMGVNVKGVWLCMKYQLPLLLAQGGGAIVNTASVAGLGAAPKMSIYSASKHAVIGLTKSAAIEYAKKGIRVNAVCPAVIDTDMFRRAYQADPRKAEFAAAMHPVGRIGKVEEIASAVLYLCSDGAAFTTGHCLTVDGGATAI |  |  | oxidation of 4-octanol measured by NADH production [1]: catalyzes the oxidation of 4-octanol in the presence of NAD+
2 | pduCDE: diol dehydratase from Klebsiella pneumoniae MGH 78578, subunits SEQ ID NOs:104, 106, 108 (protein, Klebsiella pneumoniae MGH78578) chain 1: MRSKRFEALAKRPVNQDGFVKEWIEEGFIAMESPNDPKPSIRIVNGAVTELDDKPVEQFDLIDHFIARYGINLARAEEVMAMDSVKLANMLCDPNVKRSDIVPLTTAMTPAKIVEVVSHMNVVEMMMAMQKMRARRTPSQQAHVTNIKDNPVQIAADAAEGAWRGFDEQETTVAVARYAPFNAIALLVGSQVGRPGVLTQCSLEEATELKLGMLGHTCYAETISVYGTEPVFTDGDDTPWSKGFLASSYASRGLKMRFTSGSGSEVQMGYAEGKSMLYLEARCIYITKAAGVQGLQNGSVSCIGVPSAVPSGIRAVLAENLICSALDLECASSNDQTFTHSDMRRTARLLMQFLPGTDFISSGYSAVPNYDNMFAGSNEDAEDFDDYNVIQRDLKVDGGLRPVREEDVIAIRNKAARALQAVFAGMGLPPITDEEVEAATYAHGSKDMPERNIVEDIKFAQEIINKNRNGLEVVKALAKGGFPDVAQDMLNIQKAKLTGDYLHTSAIIVGEGQVLSAVNDVNDYAGPATGYRLQGERWEEIKNIPGALDPNELG chain 2: MEINETLLRQIIEEVLSEMKSGADKPVSFSAPAASVASAAPVAVAPVSGDSFLTEIGEAKPGTQQDEVIIAVGPAFGLAQTANIVGIPHKNILREVIAGIEEEGIKARVIRCFKSSDVAFVAVEGNRLSGSGISIGIQSKGTTVIHQRGLPPLSNLELFPQAPLLTLETYRQIGKNAARYAKRESPQPVPTLNDQMARPKYQAKSAILHIKETKYVVTGKNPQELRVAL chain 3: MNTDAIESMVRDVLSRMNSLQDGITPAPAAPTNDTVRQPKVSDYPLATRHPEWVKTATNKTLDDLTLENVLSDRVTAQDMRITPETLRMQAAIAQDAGRDRLAMNFERAAELTAVPDDRILEIYNALRPYRSTQAELLAIADDLEHRYQARLCAAFVREAAGLYIERKKLKGDD | 4-octanone was produced from butyroin |  | 
3 | Vs24259: putative protein of Vibrio splendidus similar to an alginate lyase, SEQ ID NO:34; negative control (protein, listed as Vibrio splendidus) MKQITLKTLLASSILLAVGCASTSTPTADFPNNKETGEALLTPVAVSASSHDGNGPDRLVDQDLTTRWSSAGDGEWATLDYGSVQEFDAVQASFSKGNQRQSKFDIQVSVDGESWTTVLENQLSSGKAIGLERFQFEPVVQARYVRYVGHGNTKNGWNSVTGLAAVNCSINACPASHIITSDVVAAEAVIIAEMKAAEKARKDARKDLRSGNFGVAAVYPCETTVECDTRSALPVPTGLPATPVAGNSPSENFDMTHWYLSQPFDHDKNGKPDDVSEWNLANGYQHPEIFYTADDGGLVFKAYVKGVRTSKNTKYARTELREMMRRGDQSISTKGVNKNNWVFSSAPESDLESAAGIDGVLEATLKIDHATTTGNANEVGRFIIGQIHDQNDEPIRLYYRKLPNQETGAVYFAHESQDATKEDFYPLVGDMTAEVGDDGIALGEVFSYRIDVKGNTMTVTLIREGKDDVVQVVDMSNSGYDAGGKYMYFKAGVYNQNISGDLDDYSQATFYQLDVSHDQYKK |  | little or no cleavage of the alginate polymer has occurred | 
4 | ddh3: diol dehydrogenase isolated from Klebsiella pneumoniae MGH78578, SEQ ID NO:102 (protein, Klebsiella pneumoniae MGH78578) MKKVALVTGAGQGIGKAIALRLVKDGFAVAIADYNDATAKAVASEINQAGGHAVAVKVDVSDRDQVFAAVEQARKTLGGFDVIVNNAGVAPSTPIESITPEIVDKVYNINVKGVIWGIQAAVEAFKKEGHGGKIINACSQAGHVGNPELAVYSSSKFAVRGLTQTAARDLAPLGITVNGYCPGIVKTPMWAEIDRQVSEAAGKPLGYGTAEFAKRITLGRLSEPEDVAACVSYLASPDSDYMTGQSLLIDGGMVFN | 4-octanone was produced from butyroin |  | 
5 | 2ADH-16: secondary alcohol dehydrogenase isolated from Klebsiella pneumoniae subsp. pneumoniae MGH 78578, SEQ ID NO:138 (protein, Klebsiella pneumoniae subsp. pneumoniae MGH78578) MTAFHNKSVLVLGGSRGIGAAIVRRFVADGASVVFSYSGSPEAAERLAAETGSTAVQADSADRDAVISLVRDSGPLDVLVVNAGIALFGDALEQDSDAIDRLFHINIHAPYHASVEAARRMPEGGRIIVIGSVNGDRMPLPGMAAYALSKSALQGLARGLARDFGPRGITVNVVQPGPIDTDANPENGPMKELMHSFMAIKRHGRPEEVAGMVAWLAGPEASFVTGAMHTIDGAFGA |  |  | oxidation and reduction of various substrates [4]: capable of catalyzing both the oxidation and reduction of a wide variety of substrates
6 | Vs24254: functional external alginate lyase of Vibrio splendidus, SEQ ID NO:32 (protein, listed as Vibrio splendidus) MNKPIFVVVLASLTYGCGGSSSSDSSDPSDTNNSGASYGVVAPYDIAKYQNILSSSDLQVSDPNGEEGNKTSEVKDGNFDGYVSDYFYADEETENLIFKMANYKMRSEVREGENFDINEAGVRRSLHAEISLPDIEHVMASSPADHDEVTVLQIHNKGTDESGTGYIPHPLLRVVWEQERDGLTGHYWAVMKNNAIDCSSAADSSDCYATSYNRYDLGEADLDNFTKFDLSVYENTLSIKVNDEVKVDEDITYWQHLLSYFKAGIYNQFENGEATAHFQALRYTTTQVNGSNDWDINDWKLTIPASKDTWYGSGGDSAAELEPERCESSKDLLANDSDVYDSDIGLSYFNTDEGRVHFRADMGYGTSTENSSYIRSELRELYQSSVQPDCSTSDEDTSWYLDDTRTNATSHELTASLRIEDYPNINNQDPKVVLGQIHGWKINQALVKLLWEGESKPVRVILNSDFERNNQDCNHCDPFSVELGTYSASEEWRYTIRANQDGIYLATHDLDGTNTVSHLIPWGQDYTDKDGDTVSLTSDWTSTDIAFYFKAGIYPQFKPDSDYAGEVFDVSFSSLRAEHN |  | positive TBA assay result of pink color | 
